Experimental data from patent US20030219445A1.
Values joined by “and” are separate entries in the source; they are usually repeats but may differ in a detail not shown here. Equal values may be shown once.

Tests used:
[1] = molecular target: CD34 antibody 9069 (9C5) coated on M-450 Dynabeads; assay: cell-based or functional assay
[2] = molecular target: biotinylated 9C5 antibody (anti-human CD34 monoclonal antibody, biotinylated with Biotin Hydrazide); assay: cell-based or functional assay

QQGWFPKD (N-terminal acetyl (printed Ac-QQGWFPKD)) [free PR34+ peptide Ac-QQGWFPKD] showed a % Yield, released with PR34+ 2.5 mg (beads with 1 µg antibody per 10^8 beads) [1] of 55.9%, a % Yield, released with PR34+ 2.5 mg (beads with 5 µg antibody per 10^8 beads) [1] of 68.9% and a % Yield, released with PR34+ 2.5 mg (beads with 20 µg antibody per 10^8 beads) [1] of 47.4%. For the same binder, the % Yield, released with PR34+ 2.5 mg (beads with 50 µg antibody per 10^8 beads) [1] was 57.5%, the release of Camma cells from anti-CD34-coated Dynabeads [1] was greater than 75% and the yield of Camma cells after release with PR34 peptide [1] was greater than 70%. The % SUP-T1 Yield (tube 2, cells released with free PR34+ peptide) [2] was 43%, the % SUP-T1 Yield (tube 3, cells released with free PR34+ peptide) [2] was 31% and the % T-cells released with 9069N 2.5 mg (CD2-9069N 1 µg, b-9069 1 µg) [2] was 71%. The % T-cells released with 9069N 2.5 mg (CD2-9069N 1 µg, b-9069 10 µg) [2] was 87% and 65%, the % T-cells released with 9069N 2.5 mg (CD2-9069N 5 µg, b-9069 1 µg) [2] was 61% and 56% and the % T-cells released with 9069N 2.5 mg (CD2-9069N 5 µg, b-9069 10 µg) [2] was 50%. The % Yield of CD8+ cells (condition 3, released with free PR34+ peptide) [2] was 16% and the % Yield, released with PR34+ 2.5 mg (streptavidin coated Dynabead control) [2] was 81.5%.
